Data from US6294648, “Protein having proteinase inhibitor activity” (Bayer Corporation, dated 2001).

Tests used:
[1] = target: T1, Human neutrophil cathepsin G (human, UniProt P08311); assay: enzyme inhibition; 30 min preincubation at 37 C; Suc-AAPF-AMC hydrolysis by fluorescence; Ki* corrected for substrate
T1 sequence: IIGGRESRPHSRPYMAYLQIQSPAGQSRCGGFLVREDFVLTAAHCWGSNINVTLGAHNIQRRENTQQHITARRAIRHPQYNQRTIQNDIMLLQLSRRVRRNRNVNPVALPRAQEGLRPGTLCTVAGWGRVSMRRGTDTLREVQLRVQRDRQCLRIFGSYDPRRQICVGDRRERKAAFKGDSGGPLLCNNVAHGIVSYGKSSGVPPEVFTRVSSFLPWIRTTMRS
Procedure: (§1) The BTL.009 concentration was determined by amino acid analysis. The concentration of human neutrophil elastase, cathepsin G, and proteinase 3 were based on the manufacturer's specifications. […] Hydrolysis of AMC-conjugated peptides was monitored on a Hitachi model F4500 fluorometer (excitation=370 nm, emission=432 nm) over the first 2 minutes of the reaction. Ki* values were determined from plots of fractional rate versus inhibitor concentration, which were fit by nonlinear regression analysis (Enzifitter™ by Bio soft, Cambridge UK) as described (44). Ki values were obtained by correction for the effect of substrate as described (44).

[2] = target: Human neutrophil elastase (human, UniProt P08246); assay: enzyme inhibition; 30 min preincubation at 37 C; Suc-AAPV-AMC hydrolysis by fluorescence; Ki* corrected for substrate
Procedure: as §1

[3] = target: T2, Human neutrophil proteinase 3 (human, UniProt P24158); assay: as above
T2 sequence: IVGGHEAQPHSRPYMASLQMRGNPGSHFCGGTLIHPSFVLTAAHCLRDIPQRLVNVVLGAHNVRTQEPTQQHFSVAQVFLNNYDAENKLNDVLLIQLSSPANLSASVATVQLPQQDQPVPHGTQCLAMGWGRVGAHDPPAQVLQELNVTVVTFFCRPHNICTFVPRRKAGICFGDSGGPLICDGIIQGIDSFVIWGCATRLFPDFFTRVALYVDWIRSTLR
Procedure: as §1

B1: BTL.009 (other)
chain: KQDVCEMPKETGPCLAYFLHWWYDKKDNTCSMFVYGGCQGNNNNFQSKANCLNTC
- Ki [1]: 1800 nM
- Ki [2]: 8 nM
- Ki [3]: 190 nM
